Test results published in patent US20240150422A1 (ONKO INNATE, published 2024).

B2: truncated form of the IL-12Rβ2 extracellular region (domains 1-3) (receptor)
chain: KIDACKRGDVTVKPSHVILLGSTVNITCSLKPRQGCFHYSRRNKLILYKFDRRINFHHGHSLNSQVTGLPLGTTLFVCKLACINSDEIQICGAEIFVGVAPEQPQNLSCIQKGEQGTVACTWERGRDTHLYTEYTLQLSGPKNLTWQKQCKDIYCDYLDFGINLTPESPESNFTAKVTAVNSLGSSSSLPSTFTFLDIVRPLPPWDIRIKFQKASVSRCTLYWRDEGLVLLNRLRYRPSNSRLWNMVNVTKAKGRHDLLDLKPFTEYEFQISSKLHLYKGSWSDWSESLRAQTPEE
notes: also called interleukin 12 receptor beta 2

Tests used:
[1] = target: IL-12 receptor on HEK-Blue IL-12 cells (InvivoGen) (human, UniProt P42701 24-662; Q99665 24-862); assay: cell-based or functional assay
[2] = target: T1, wild-type IL-12 heterodimeric Fc fusion protein (IgG1Fc(knob)-IL12p35 / IgG1Fc(hole)-IL12p40) (human, UniProt P29459 23-219; P29460 23-328); assay: SPR as in Example 3; immobilized IL-12 Fc, IL-12Rbeta2 injected at 0.7-500 nM
T1 construct: also called wild-type IL-12 Fc; IL-12 Fc wt; not shown: human IgG1 Fc (knob) with artificial disulfide and N297G; human IgG1 Fc (hole) with artificial disulfide and N297G
T1 sequence 1: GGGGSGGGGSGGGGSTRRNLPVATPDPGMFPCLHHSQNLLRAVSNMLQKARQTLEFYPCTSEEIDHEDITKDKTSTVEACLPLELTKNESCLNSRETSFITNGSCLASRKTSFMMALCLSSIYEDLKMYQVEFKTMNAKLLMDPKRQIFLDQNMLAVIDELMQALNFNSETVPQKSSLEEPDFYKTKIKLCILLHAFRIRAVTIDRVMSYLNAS
T1 sequence 2: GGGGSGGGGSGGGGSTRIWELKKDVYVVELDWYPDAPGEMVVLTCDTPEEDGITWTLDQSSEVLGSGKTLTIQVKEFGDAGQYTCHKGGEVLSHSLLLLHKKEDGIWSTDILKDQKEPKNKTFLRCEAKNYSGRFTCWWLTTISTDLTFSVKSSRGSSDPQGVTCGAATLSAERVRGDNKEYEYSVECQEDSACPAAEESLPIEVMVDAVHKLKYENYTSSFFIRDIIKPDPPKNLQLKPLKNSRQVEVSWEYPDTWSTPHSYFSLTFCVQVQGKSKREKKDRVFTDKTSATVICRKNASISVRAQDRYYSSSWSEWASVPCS

[3] = target: T1, wild-type IL-12 heterodimeric Fc fusion …; assay: SPR (Biacore T100, 20 °C), IL-12 Fc captured on protein A chip, IL-12Rβ2 domains 1-3 as analyte, 1:1 Langmuir model
Method: (§1) SPR measurements were recorded on a Biacore T100 at 20° C. in a buffer comprising 20 mM sodium phosphate pH 7.4, 150 mM NaCl and 0.05% Tween20. […] Following a 300 second dissociation phase, the remaining bound IL-12Rβ2 was washed off the chip using 50 mM Glycine pH 2.5, followed by 50 mM NaOH (30 second injections for each). Kinetic parameters were calculated using BIAevaluation software using a 1:1 Langmuir model, following subtraction of binding to a reference flow cell containing an isotype control antibody.

[4] = target: B2; assay: SPR (Biacore T100, 20 C); IL-12 Fc captured on a protein A chip (190 RU), IL-12Rbeta2 (domains 1-3) as analyte; 1:1 Langmuir model
Method: as §1

[5] = target: B2; assay: SPR (Biacore T100, 20 C); IL-12 Fc captured on a protein A chip (220 RU), IL-12Rbeta2 (domains 1-3) as analyte; 1:1 Langmuir model
Method: as §1

[6] = target: B2; assay: SPR (Biacore T100, 20 C); IL-12 Fc captured on a protein A chip (230 RU), IL-12Rbeta2 (domains 1-3) as analyte; 1:1 Langmuir model
Method: as §1

B1: IL-12 Fc K170A mutant (Fc-C-terminal fusion format of Example 1) (Fc fusion, not shown: a dimerising Fc or GST)
chain 1: GGGGSGGGGSGGGGSTRRNLPVATPDPGMFPCLHHSQNLLRAVSNMLQKARQTLEFYPCTSEEIDHEDITKDKTSTVEACLPLELTKNESCLNSRETSFITNGSCLASRKTSFMMALCLSSIYEDLKMYQVEFKTMNAKLLMDPKRQIFLDQNMLAVIDELMQALNFNSETVPQKSSLEEPDFYKTAIKLCILLHAFRIRAVTIDRVMSYLNAS
chain 2: GGGGSGGGGSGGGGSTRIWELKKDVYVVELDWYPDAPGEMVVLTCDTPEEDGITWTLDQSSEVLGSGKTLTIQVKEFGDAGQYTCHKGGEVLSHSLLLLHKKEDGIWSTDILKDQKEPKNKTFLRCEAKNYSGRFTCWWLTTISTDLTFSVKSSRGSSDPQGVTCGAATLSAERVRGDNKEYEYSVECQEDSACPAAEESLPIEVMVDAVHKLKYENYTSSFFIRDIIKPDPPKNLQLKPLKNSRQVEVSWEYPDTWSTPHSYFSLTFCVQVQGKSKREKKDRVFTDKTSATVICRKNASISVRAQDRYYSSSWSEWASVPCS
HEK-Blue IL-12 reporter assay, fold reduction in EC50 value [1]: ~16 fold (vs wild-type)

B2
Kd [2]: 53.2 nM | Kd [3]: 13.1 nM

B3: IL-12 Fc single mutant P127A (Fc-C-terminal fusion format of Example 1) (Fc fusion)
chain 1: GGGGSGGGGSGGGGSTRRNLPVATPDPGMFPCLHHSQNLLRAVSNMLQKARQTLEFYPCTSEEIDHEDITKDKTSTVEACLPLELTKNESCLNSRETSFITNGSCLASRKTSFMMALCLSSIYEDLKMYQVEFKTMNAKLLMDAKRQIFLDQNMLAVIDELMQALNFNSETVPQKSSLEEPDFYKTKIKLCILLHAFRIRAVTIDRVMSYLNAS
chain 2: GGGGSGGGGSGGGGSTRIWELKKDVYVVELDWYPDAPGEMVVLTCDTPEEDGITWTLDQSSEVLGSGKTLTIQVKEFGDAGQYTCHKGGEVLSHSLLLLHKKEDGIWSTDILKDQKEPKNKTFLRCEAKNYSGRFTCWWLTTISTDLTFSVKSSRGSSDPQGVTCGAATLSAERVRGDNKEYEYSVECQEDSACPAAEESLPIEVMVDAVHKLKYENYTSSFFIRDIIKPDPPKNLQLKPLKNSRQVEVSWEYPDTWSTPHSYFSLTFCVQVQGKSKREKKDRVFTDKTSATVICRKNASISVRAQDRYYSSSWSEWASVPCS
notes: not shown: human IgG1 Fc (knob) with artificial disulfide and N297G; human IgG1 Fc (hole) with artificial disulfide and N297G
HEK-Blue IL-12 reporter assay, fold reduction in potency [1]: ~2 fold (vs IL-12 Fc w.t.) | Kd [4]: 44.3 nM

B4: IL-12 Fc single mutant Y40A (Fc-C-terminal fusion format of Example 1) (Fc fusion, not shown: a dimerising Fc or GST)
chain 1: GGGGSGGGGSGGGGSTRRNLPVATPDPGMFPCLHHSQNLLRAVSNMLQKARQTLEFAPCTSEEIDHEDITKDKTSTVEACLPLELTKNESCLNSRETSFITNGSCLASRKTSFMMALCLSSIYEDLKMYQVEFKTMNAKLLMDPKRQIFLDQNMLAVIDELMQALNFNSETVPQKSSLEEPDFYKTKIKLCILLHAFRIRAVTIDRVMSYLNAS
chain 2: GGGGSGGGGSGGGGSTRIWELKKDVYVVELDWYPDAPGEMVVLTCDTPEEDGITWTLDQSSEVLGSGKTLTIQVKEFGDAGQYTCHKGGEVLSHSLLLLHKKEDGIWSTDILKDQKEPKNKTFLRCEAKNYSGRFTCWWLTTISTDLTFSVKSSRGSSDPQGVTCGAATLSAERVRGDNKEYEYSVECQEDSACPAAEESLPIEVMVDAVHKLKYENYTSSFFIRDIIKPDPPKNLQLKPLKNSRQVEVSWEYPDTWSTPHSYFSLTFCVQVQGKSKREKKDRVFTDKTSATVICRKNASISVRAQDRYYSSSWSEWASVPCS
HEK-Blue IL-12 reporter assay, fold reduction in EC50 value [1]: ~17 fold (vs IL-12 Fc w.t.) | HEK-Blue IL-12 reporter assay, fold reduction in potency [1]: ~29 fold (vs IL-12 Fc w.t.)

B5: IL-12 Fc single mutant D126A (Fc-C-terminal fusion format of Example 1) (Fc fusion)
chain 1: GGGGSGGGGSGGGGSTRRNLPVATPDPGMFPCLHHSQNLLRAVSNMLQKARQTLEFYPCTSEEIDHEDITKDKTSTVEACLPLELTKNESCLNSRETSFITNGSCLASRKTSFMMALCLSSIYEDLKMYQVEFKTMNAKLLMAPKRQIFLDQNMLAVIDELMQALNFNSETVPQKSSLEEPDFYKTKIKLCILLHAFRIRAVTIDRVMSYLNAS
chain 2: GGGGSGGGGSGGGGSTRIWELKKDVYVVELDWYPDAPGEMVVLTCDTPEEDGITWTLDQSSEVLGSGKTLTIQVKEFGDAGQYTCHKGGEVLSHSLLLLHKKEDGIWSTDILKDQKEPKNKTFLRCEAKNYSGRFTCWWLTTISTDLTFSVKSSRGSSDPQGVTCGAATLSAERVRGDNKEYEYSVECQEDSACPAAEESLPIEVMVDAVHKLKYENYTSSFFIRDIIKPDPPKNLQLKPLKNSRQVEVSWEYPDTWSTPHSYFSLTFCVQVQGKSKREKKDRVFTDKTSATVICRKNASISVRAQDRYYSSSWSEWASVPCS
notes: as for B3
Kd [5]: 42.9 nM

B6: IL-12 Fc single mutant K168A (Fc-C-terminal fusion format of Example 1) (Fc fusion)
chain 1: GGGGSGGGGSGGGGSTRRNLPVATPDPGMFPCLHHSQNLLRAVSNMLQKARQTLEFYPCTSEEIDHEDITKDKTSTVEACLPLELTKNESCLNSRETSFITNGSCLASRKTSFMMALCLSSIYEDLKMYQVEFKTMNAKLLMDPKRQIFLDQNMLAVIDELMQALNFNSETVPQKSSLEEPDFYATKIKLCILLHAFRIRAVTIDRVMSYLNAS
chain 2: GGGGSGGGGSGGGGSTRIWELKKDVYVVELDWYPDAPGEMVVLTCDTPEEDGITWTLDQSSEVLGSGKTLTIQVKEFGDAGQYTCHKGGEVLSHSLLLLHKKEDGIWSTDILKDQKEPKNKTFLRCEAKNYSGRFTCWWLTTISTDLTFSVKSSRGSSDPQGVTCGAATLSAERVRGDNKEYEYSVECQEDSACPAAEESLPIEVMVDAVHKLKYENYTSSFFIRDIIKPDPPKNLQLKPLKNSRQVEVSWEYPDTWSTPHSYFSLTFCVQVQGKSKREKKDRVFTDKTSATVICRKNASISVRAQDRYYSSSWSEWASVPCS
notes: as for B3
Kd [6]: 130 nM
